Biological target: His-tagged recombinant full-length HCV NS3 protein (aa 1027 to aa 1657 of the HCV polyprotein, 1b genotype), purified from E. coli (hepatitis C virus, 1b genotype)
Test: cell-based or functional assay

B1: Human recombinant anti-NS3 Fab (HFab-aNS3) (Fab, V domains shown)
VH: LEESGGGLVKPGGSLRLSCVASGLTFSRYNMQWVRQAPGKGLEWVASISTSGVYIYYADSVTGRFTISRDNSKNSLYLQMNSLGAEDTAVYYCARDLTFLCGGDCLQPWGQG
VL: AELTQSPSSLSASVGDRVTITCRASQGISRYLAWFQQRPGKAPKSLIYAASHLQSGVPSRFSASGSGTEFTLSISSLQPEDFATYYCQQYDTYPYTFGQGTKLEIKR
inhibition of NTPase activity: 15% | inhibition of helicase activity: 54%
